The record followed here is PMC8221081.

This test concerns the target Gankyrin (Gank) (UniProt Q9Z2X2). The test is described as follows: Gank IP, C/EBPα Western blot. The following applies: reference: wild-type mice, DEN-treated; sites S193. A general note: A western blot detects proteins with antibodies after separation by electrophoresis.

Consider “C/EBPα (from UniProt P53566) C/EBPα-S193A mice, DEN-treated”, for which the “binding against the reference” value is “lost”.
